Data on one variant can be found in IntAct's records for PubMed 22266823.

B1: Fanconi anemia core complex-associated protein 20 (Homo sapiens), Q6NZ36-1 (parent)
chain: MEAARRPRLGLSRRRPRPAGGPSGGRPWFLLGGDERERLWAELLRTVSPELILDHEVPSLPAFPGQEPRCGPEPTEVFTVGPKTFSWTPFPPDLWGPGRSYRLLHGAGGHLESPARSLPQRPAPDPCRAPRVEQQPSVEGAAALRSCPMCQKEFAPRLTQLDVDSHLAQCLAESTEDVTW
partner: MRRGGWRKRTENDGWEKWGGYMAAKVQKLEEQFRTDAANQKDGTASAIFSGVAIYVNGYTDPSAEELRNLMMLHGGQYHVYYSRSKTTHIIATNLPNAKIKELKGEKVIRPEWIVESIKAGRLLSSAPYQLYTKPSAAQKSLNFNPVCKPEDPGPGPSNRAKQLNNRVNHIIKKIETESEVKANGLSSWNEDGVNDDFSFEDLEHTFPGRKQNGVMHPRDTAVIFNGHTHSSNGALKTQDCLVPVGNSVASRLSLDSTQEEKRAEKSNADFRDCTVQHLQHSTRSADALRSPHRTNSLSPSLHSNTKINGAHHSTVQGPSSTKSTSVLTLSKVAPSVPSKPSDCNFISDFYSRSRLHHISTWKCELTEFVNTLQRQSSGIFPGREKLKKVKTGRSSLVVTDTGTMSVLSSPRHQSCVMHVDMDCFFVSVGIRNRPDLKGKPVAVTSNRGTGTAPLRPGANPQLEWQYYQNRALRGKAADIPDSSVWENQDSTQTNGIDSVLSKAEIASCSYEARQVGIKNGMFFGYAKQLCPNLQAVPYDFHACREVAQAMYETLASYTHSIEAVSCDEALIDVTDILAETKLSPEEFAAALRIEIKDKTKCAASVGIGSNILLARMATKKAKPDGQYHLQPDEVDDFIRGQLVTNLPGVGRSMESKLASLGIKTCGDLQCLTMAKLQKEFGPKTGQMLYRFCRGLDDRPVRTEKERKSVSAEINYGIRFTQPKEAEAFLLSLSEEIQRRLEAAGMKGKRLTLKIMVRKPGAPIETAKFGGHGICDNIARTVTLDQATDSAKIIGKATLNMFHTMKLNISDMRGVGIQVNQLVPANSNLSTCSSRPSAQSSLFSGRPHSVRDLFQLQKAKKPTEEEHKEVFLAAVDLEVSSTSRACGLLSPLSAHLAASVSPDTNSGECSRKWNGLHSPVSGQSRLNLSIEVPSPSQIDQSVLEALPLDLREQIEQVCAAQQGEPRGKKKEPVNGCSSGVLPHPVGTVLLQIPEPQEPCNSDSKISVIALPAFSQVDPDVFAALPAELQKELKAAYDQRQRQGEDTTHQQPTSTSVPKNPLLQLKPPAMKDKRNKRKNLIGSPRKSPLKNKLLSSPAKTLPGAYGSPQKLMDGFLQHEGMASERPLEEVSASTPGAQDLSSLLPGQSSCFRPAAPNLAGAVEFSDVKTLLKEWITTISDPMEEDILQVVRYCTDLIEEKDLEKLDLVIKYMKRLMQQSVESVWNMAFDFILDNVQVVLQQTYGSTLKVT

The test covers variants of B1. As to conditions: with rev1_mouse Rev1, Q920Q2.
Turning to MEAARRPRLGLSRRRPRPAGGPSGGRPWFLLGGDERERLWAELLRTVSPELILDHEVPSLPAFPGQEPRCGPEPTEVFTVGPKTFSWTPFPPDLWGPGRSYRLLHGAGGHLESPARSLPQRPAPDPCRAPRVEQQPSVEGAAALRSAPMAQKEFAPRLTQLDVDSHLAQCLAESTEDVTW, the “effect of a mutation on the interaction” value is “disrupting interaction strength”.
